Molecular target: the molecule itself
Experiment: SEC; HiLoad 16/60 Superdex 200 pg column in 1X PBS, after Ni-NTA

B1: Schmallenberg virus nucleoprotein (natural protein)
chain: MSSQFIFEDVPQRNAATFNPEVGYVAFIGKYGQQLNFGVARVFFLNQKKAKMVLHKTAQPSVDLTFGGVKFTVVNNHFPQYVSNPVPDNAITLHRMSGYLARWIADTCKASVLKLAEASAQIVMPLAEVKGCTWADGYTMYLGFAPGAEMFLDAFDFYPLVIEMHRVLKDNMDVNFMKKVLRQRYGTMTAEEWMTQKITEIKAAFNSVGQLAWAKSGFSPAARTFLQQFGINI
notes: Nucleoprotein (N) of Schmallenberg virus, encoded on the S segment; cDNA ligated through AgeI/XhoI into pET-28M-SUMO3 in place of GFP; also called SBV-N; SBV N; source: E. coli BL21, purified (Ni-NTA, SEC)
B1: binds.

Source: article PMC7684302, “A novel Schmallenberg virus subunit vaccine candidate protects IFNAR^-/- mice against virulent SBV challenge” (Scientific Reports, 2020)
